We go through 1 molecule from paper PMC8712213 (Nature, 2020).

The experiment addresses ALG6 from Saccharomyces cerevisiae (tag-cleaved) (S. cerevisiae, UniProt Q12001). As to the kind of experiment: SEC.

Chain of ALG6 from Saccharomyces cerevisiae (tag-cleaved) (Q12001 whole entry): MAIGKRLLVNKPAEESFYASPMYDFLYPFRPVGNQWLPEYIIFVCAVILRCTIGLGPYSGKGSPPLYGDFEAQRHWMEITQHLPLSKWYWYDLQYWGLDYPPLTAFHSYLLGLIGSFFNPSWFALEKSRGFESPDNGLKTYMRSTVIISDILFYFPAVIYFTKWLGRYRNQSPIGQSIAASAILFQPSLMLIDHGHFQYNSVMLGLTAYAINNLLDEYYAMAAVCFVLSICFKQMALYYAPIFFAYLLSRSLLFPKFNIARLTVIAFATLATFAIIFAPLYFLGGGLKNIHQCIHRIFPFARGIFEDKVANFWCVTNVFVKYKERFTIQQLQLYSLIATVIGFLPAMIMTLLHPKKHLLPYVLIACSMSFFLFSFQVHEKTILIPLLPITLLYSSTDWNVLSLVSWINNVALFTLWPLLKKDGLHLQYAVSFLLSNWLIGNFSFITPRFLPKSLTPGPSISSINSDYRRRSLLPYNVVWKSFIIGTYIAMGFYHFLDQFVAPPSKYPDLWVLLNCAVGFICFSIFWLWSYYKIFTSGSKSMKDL

B1: 6AG9-Fab (Fab, V domains shown)
VH: EVQLVESGGGLVQPGGSLRLSCAASGFNVYSSSIHWVRQAPGKGLEWVASISSYSGYTSYADSVKGRFTISADTSKNTAYLQMNSLRAEDTAVYYCAREYWSWYSYSYGIDYWGQGTLVTVSS
VL: DIQMTQSPSSLSASVGDRVTITCRASQSVSSAVAWYQQKPGKAPKLLIYSASSLYSGVPSRFSGSRSGTDFTLTISSLQPEDFATYYCQQSYWVGYPITFGQGTKVEIK
For B1, the binding result is on record as “binds”.
